Data from publication PMC9482650, “Quantitative fragmentomics allow affinity mapping of interactomes” (Nature Communications, 2022).

T1: MPDZ_12, O75970
T1 sequence (O75970 1857-1958, limits assumed, looked up): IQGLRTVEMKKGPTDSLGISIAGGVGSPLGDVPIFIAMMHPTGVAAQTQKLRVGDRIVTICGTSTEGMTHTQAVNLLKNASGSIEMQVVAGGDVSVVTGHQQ

T2: GRIP1_5, Q9Y3R0
T2 sequence (Q9Y3R0 568-668, limits assumed, looked up): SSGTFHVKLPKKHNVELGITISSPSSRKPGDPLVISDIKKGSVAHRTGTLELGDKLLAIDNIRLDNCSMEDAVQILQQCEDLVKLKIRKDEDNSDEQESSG

T3: APBA1_2, Q02410
T3 sequence (Q02410 742-832, limits assumed, looked up): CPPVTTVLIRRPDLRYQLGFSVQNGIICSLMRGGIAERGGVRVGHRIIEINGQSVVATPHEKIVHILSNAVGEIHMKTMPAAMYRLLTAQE

T4: SNTG1, Q9NSN8
T4 sequence (Q9NSN8 52-150, limits assumed, looked up): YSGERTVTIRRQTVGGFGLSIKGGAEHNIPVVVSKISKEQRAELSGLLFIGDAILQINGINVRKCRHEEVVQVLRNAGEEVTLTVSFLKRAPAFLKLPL

T5: SNTG2, Q9NY99
T5 sequence (Q9NY99 68-166, limits assumed, looked up): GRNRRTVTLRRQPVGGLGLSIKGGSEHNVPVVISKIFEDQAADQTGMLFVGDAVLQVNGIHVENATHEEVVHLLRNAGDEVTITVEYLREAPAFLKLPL

T6: APBA1_1, Q02410
T6 sequence (Q02410 651-752, limits assumed, looked up): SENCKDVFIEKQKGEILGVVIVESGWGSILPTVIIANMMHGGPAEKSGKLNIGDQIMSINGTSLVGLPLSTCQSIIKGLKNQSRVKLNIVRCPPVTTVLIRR

T7: DVL3, Q92997
T7 sequence (Q92997 244-331, limits assumed, looked up): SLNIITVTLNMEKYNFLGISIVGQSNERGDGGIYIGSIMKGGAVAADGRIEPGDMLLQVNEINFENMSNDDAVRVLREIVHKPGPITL

T8: LNX2_3, Q8N448
T8 sequence (Q8N448 463-564, limits assumed, looked up): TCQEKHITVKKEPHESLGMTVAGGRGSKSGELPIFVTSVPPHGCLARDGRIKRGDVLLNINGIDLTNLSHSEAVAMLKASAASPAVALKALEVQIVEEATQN

T9: PDZD2_2, O15018
T9 sequence (O15018 329-429, limits assumed, looked up): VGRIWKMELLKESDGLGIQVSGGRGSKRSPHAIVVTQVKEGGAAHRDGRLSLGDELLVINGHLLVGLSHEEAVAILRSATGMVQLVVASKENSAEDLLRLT

T10: LIN7C, Q9NUP9
T10 sequence (Q9NUP9 88-185, limits assumed, looked up): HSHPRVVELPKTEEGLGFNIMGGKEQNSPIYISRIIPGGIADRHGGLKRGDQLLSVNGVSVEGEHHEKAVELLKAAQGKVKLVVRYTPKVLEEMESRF

T11: NHERF3_4, Q5T2W1
T11 sequence (Q5T2W1 373-468, limits assumed, looked up): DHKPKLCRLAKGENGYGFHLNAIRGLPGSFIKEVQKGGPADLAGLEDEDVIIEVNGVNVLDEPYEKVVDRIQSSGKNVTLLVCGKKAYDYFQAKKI


What was measured:
Experiment in all cases: holdup assay
Set-up in all cases: key: below the threshold = too weak to quantify, mostly under pKd 3.1 to 4
Conditions in all cases: plain residues with an end cap or a label only (N-terminal biotin on a linker: ado-ado)
MPDZ_12, O75970 = biological target: T1, MPDZ_12, O75970
GRIP1_5, Q9Y3R0 = biological target: T2, GRIP1_5, Q9Y3R0
APBA1_2, Q02410 = biological target: T3, APBA1_2, Q02410
LIMK2, P53671 = biological target: LIMK2, P53671
PTPN3, P26045 = biological target: PTPN3, P26045
SNTG1, Q9NSN8 = biological target: T4, SNTG1, Q9NSN8
SNTG2, Q9NY99 = biological target: T5, SNTG2, Q9NY99
NHERF4_4, Q86UT5 = biological target: NHERF4_4, Q86UT5
GRIP2_4, Q9C0E4 = biological target: GRIP2_4, Q9C0E4
GORASP2, Q9H8Y8 = biological target: GORASP2, Q9H8Y8
DLG4_1, P78352 = biological target: DLG4_1, P78352
GIPC2, Q8TF65 = biological target: GIPC2, Q8TF65
SCRIB_2, Q14160 = biological target: SCRIB_2, Q14160
FRMPD2_1, Q68DX3 = biological target: FRMPD2_1, Q68DX3
APBA1_1, Q02410 = biological target: T6, APBA1_1, Q02410
Inadl_8, Q8NI35 = biological target: Inadl_8, Q8NI35
GRIP2_7, Q9C0E4 = biological target: GRIP2_7, Q9C0E4
DVL3, Q92997 = biological target: T7, DVL3, Q92997
LNX2_3, Q8N448 = biological target: T8, LNX2_3, Q8N448
MAST2, Q6P0Q8 = biological target: MAST2, Q6P0Q8
IL16_3, Q14005 = biological target: IL16_3, Q14005
Inadl_10, Q8NI35 = biological target: Inadl_10, Q8NI35
PDZD2_2, O15018 = biological target: T9, PDZD2_2, O15018
DLG4_3, P78352 = biological target: DLG4_3, P78352
LIN7C, Q9NUP9 = biological target: T10, LIN7C, Q9NUP9
DLG1_1, Q12959 = biological target: DLG1_1, Q12959
NHERF3_4, Q5T2W1 = biological target: T11, NHERF3_4, Q5T2W1

Sequence of DLG4_3, P78352 (P78352 306-403): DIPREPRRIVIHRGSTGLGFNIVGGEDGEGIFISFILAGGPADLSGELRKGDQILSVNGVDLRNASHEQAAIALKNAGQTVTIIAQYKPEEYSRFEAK
Sequence of Inadl_8, Q8NI35 (Q8NI35 1425-1530): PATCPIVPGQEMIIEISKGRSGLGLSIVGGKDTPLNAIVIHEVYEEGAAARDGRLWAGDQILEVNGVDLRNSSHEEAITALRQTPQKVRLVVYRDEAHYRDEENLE
Sequence of GIPC2, Q8TF65 (Q8TF65 112-203): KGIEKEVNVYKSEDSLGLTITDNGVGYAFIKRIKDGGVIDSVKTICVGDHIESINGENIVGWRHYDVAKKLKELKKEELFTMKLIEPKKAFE
Sequence of FRMPD2_1, Q68DX3 (Q68DX3 770-861): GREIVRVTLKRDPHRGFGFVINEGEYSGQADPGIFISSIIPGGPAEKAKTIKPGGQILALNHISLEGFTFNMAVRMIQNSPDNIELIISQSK
Sequence of GRIP2_7, Q9C0E4 (Q9C0E4 934-1023): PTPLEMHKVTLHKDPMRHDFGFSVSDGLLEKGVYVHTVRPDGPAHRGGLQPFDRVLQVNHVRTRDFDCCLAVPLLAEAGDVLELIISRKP
Sequence of SCRIB_2, Q14160 (Q14160 857-960): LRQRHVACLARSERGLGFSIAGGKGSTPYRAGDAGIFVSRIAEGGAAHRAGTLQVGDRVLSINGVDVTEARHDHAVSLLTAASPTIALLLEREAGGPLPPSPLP
Sequence of LIMK2, P53671 (P53671 143-248): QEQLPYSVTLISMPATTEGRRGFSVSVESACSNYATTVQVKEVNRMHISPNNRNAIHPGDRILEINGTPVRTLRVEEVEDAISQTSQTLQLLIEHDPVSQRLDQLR
Sequence of DLG4_1, P78352 (P78352 62-152): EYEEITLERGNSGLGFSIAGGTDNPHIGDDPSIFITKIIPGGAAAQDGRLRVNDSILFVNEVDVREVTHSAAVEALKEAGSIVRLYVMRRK
Sequence of GRIP2_4, Q9C0E4 (Q9C0E4 446-548): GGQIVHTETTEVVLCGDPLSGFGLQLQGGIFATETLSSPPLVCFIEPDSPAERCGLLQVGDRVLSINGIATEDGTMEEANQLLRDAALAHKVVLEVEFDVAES
Sequence of MAST2, Q6P0Q8 (Q6P0Q8 1099-1202): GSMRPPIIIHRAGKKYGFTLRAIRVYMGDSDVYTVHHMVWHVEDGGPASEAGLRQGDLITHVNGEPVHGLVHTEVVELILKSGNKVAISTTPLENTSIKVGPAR
Sequence of NHERF4_4, Q86UT5 (Q86UT5 464-550): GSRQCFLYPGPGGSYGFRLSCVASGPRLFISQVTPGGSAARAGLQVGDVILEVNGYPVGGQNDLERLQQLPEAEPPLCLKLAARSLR
Sequence of PTPN3, P26045 (P26045 505-587): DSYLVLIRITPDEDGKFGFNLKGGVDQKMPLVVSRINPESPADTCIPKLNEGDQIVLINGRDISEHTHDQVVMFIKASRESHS
Sequence of IL16_3, Q14005 (Q14005 1107-1207): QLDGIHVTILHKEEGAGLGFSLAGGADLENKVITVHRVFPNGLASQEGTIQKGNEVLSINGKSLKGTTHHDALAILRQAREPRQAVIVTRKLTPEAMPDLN
Sequence of Inadl_10, Q8NI35 (Q8NI35 1673-1763): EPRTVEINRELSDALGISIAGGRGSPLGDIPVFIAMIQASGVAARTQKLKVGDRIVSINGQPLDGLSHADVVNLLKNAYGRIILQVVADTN

Row | pKd (MPDZ_12, O75970) | pKd (GRIP1_5, Q9Y3R0) | pKd (APBA1_2, Q02410) | pKd (LIMK2, P53671) | pKd (PTPN3, P26045) | pKd (SNTG1, Q9NSN8) | pKd (SNTG2, Q9NY99) | pKd (NHERF4_4, Q86UT5) | pKd (GRIP2_4, Q9C0E4) | pKd (GORASP2, Q9H8Y8) | pKd (DLG4_1, P78352) | pKd (GIPC2, Q8TF65) | pKd (SCRIB_2, Q14160) | pKd (FRMPD2_1, Q68DX3) | pKd (APBA1_1, Q02410) | pKd (Inadl_8, Q8NI35) | pKd (GRIP2_7, Q9C0E4) | pKd (DVL3, Q92997) | pKd (LNX2_3, Q8N448) | pKd (MAST2, Q6P0Q8) | Binder | also measured
1 | below the threshold | below the threshold | below the threshold | below the threshold | below the threshold | below the threshold | below the threshold | below the threshold | below the threshold | 4.44 | below the threshold | below the threshold | below the threshold | below the threshold | below the threshold | below the threshold | below the threshold | below the threshold | below the threshold | 4.14 | EDLEDEWEVI [TECPR2, O15040] | pKd (IL16_3, Q14005): below the threshold; pKd (Inadl_10, Q8NI35): below the threshold; pKd (PDZD2_2, O15018): 3.84; pKd (DLG4_3, P78352): below the threshold; pKd (LIN7C, Q9NUP9): below the threshold; pKd (DLG1_1, Q12959): below the threshold; pKd (NHERF3_4, Q5T2W1): below the threshold
2 | below the threshold | below the threshold | below the threshold | below the threshold | 4.09 | below the threshold | below the threshold | below the threshold | below the threshold | below the threshold | 3.7 | below the threshold | below the threshold | below the threshold | below the threshold | below the threshold | below the threshold | below the threshold | below the threshold | 4.79 | QLSFNTDTLC [ABCA2, Q9BZC7] | pKd (IL16_3, Q14005): below the threshold; pKd (Inadl_10, Q8NI35): below the threshold; pKd (PDZD2_2, O15018): below the threshold; pKd (DLG4_3, P78352): below the threshold; pKd (LIN7C, Q9NUP9): below the threshold; pKd (DLG1_1, Q12959): 3.87; pKd (NHERF3_4, Q5T2W1): below the threshold
